According to patent publication US20210030857A1 (NGM BIOPHARMACEUTICALS, published 2021):
Where a chain is given by its changes, count along the chain named.

What was measured:
[1] = target: T1, human beta klotho mutant R703A on HEK-293T cells (human, UniProt Q86Z14 1-1044); experiment: shotgun alanine mutagenesis, FACS on HEK-293T cells
T1 sequence: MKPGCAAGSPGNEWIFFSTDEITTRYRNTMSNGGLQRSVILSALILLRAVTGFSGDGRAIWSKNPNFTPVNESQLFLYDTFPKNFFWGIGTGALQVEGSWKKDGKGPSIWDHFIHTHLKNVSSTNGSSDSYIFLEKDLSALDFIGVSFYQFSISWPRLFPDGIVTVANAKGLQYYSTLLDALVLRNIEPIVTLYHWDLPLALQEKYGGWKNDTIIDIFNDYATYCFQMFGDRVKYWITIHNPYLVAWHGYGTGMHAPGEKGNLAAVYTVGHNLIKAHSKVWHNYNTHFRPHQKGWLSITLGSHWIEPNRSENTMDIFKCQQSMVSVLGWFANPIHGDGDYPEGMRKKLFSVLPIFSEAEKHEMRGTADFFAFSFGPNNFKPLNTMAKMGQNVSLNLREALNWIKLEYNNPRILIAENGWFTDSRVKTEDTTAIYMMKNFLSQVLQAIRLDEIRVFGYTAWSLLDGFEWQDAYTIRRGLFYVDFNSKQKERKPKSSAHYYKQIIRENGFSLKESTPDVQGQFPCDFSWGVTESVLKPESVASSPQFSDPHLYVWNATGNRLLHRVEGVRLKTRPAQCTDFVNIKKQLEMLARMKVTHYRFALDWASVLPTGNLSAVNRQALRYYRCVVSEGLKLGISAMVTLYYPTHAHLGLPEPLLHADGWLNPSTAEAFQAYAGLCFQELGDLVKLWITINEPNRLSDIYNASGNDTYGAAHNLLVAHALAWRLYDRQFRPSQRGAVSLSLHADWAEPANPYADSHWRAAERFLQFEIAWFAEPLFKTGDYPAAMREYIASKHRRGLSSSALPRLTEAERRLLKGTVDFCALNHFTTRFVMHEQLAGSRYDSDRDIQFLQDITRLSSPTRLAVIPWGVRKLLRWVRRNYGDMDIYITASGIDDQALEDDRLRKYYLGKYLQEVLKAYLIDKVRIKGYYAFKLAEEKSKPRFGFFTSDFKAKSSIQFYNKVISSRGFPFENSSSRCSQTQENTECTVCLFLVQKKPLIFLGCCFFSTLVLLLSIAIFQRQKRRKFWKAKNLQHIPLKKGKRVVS
Description: (§1) In order to further identify specific binding residues within human beta klotho KL2 domain, shotgun mutagenesis was used to separately mutate individual residues of the KL2 domain of human beta klotho to an alanine (e.g., residues F508A-L1008A). […] For example, screening of the beta klotho mutant proteins was conducted at a concentration of 0.5 μg/ml for the humanized 5H23 antibody, 1.0 μg/ml for the Fab fragment, and 2.0 μg/ml for a positive control polyclonal anti-beta klotho antibodies.

[2] = target: T2, human beta klotho mutant Y701A on HEK-293T cells (human, UniProt Q86Z14 1-1044); experiment: as above
T2 sequence: T1 sequence with Y701A, A703R
Description: as §1

B1: humanized 5H23 antibody (VH SEQ ID NO: 271 and VL SEQ ID NO: 276) (antibody, V domains shown)
VH: QVQLQQSGAEVKKPGASVKVSCKASGYTFTSYDINWVRQAPGQGLEWIGWIYPGDGSTKYNEKFKGKATITRDTSASTAYMELSSLRSEDTAVYFCARSDYYGSRSFAYWGQGTLVTVSS
VL: DIVMTQSPDSLAVSLGERATINCRASKSVSTSGYVYMHWYQQKPGQPPKLLIYLASYLESGVPDRFSGSGSGTDFTLTISSVQAEDVAVYYCQHSRDLTFPFGGGTKLEIK
notes: also called h5H23; h5H23 (Prep 1)
binding result [1]: no binding (tested: 0.5 µg/ml) | binding result [2]: no binding (tested: 0.5 µg/ml)
